Experimental data as given in the supplement of paper PMC7877785.
± gives the uncertainty stated by the source.

Assay: self-splicing fitness, log relative to wild type (ln ratio); higher = more splicing; Tetrahymena group I intron in knt gene, E. coli kanamycin selection, DiMSum; sequences stand for … in CUCUCU…GGAGGGAAAAGUUAUCAGGCAUGCACCUGGUAGCUAGUCUUUAAACCAAUAGAUUGCAUCGGUUUAAAAGGCAAGACCGUCAAAUUGCGGGAAAGGGGUCAACAGCCGUUCAGUACCAAGUCUCAGGGGAAACUUUGAGAUGGCCUUGCAAAGGGUAUGGUAAUAAGCUGACGGACAUGGUCCUAACCACGCAGCCAAGUCCUAAGUCAACAGAUCUUCUGUUGAUAUGGAUGCAGUUCACAGACUAAAUGUCGGUCGGGGAAGAUGUAUUCUUCUCAUAAGAUAUAGUCGGACCUCUCCUUAAUGGGAGCUAGCGGAUGAAGUGAUGCAACACUGGAGCCGCUGGGAACUAAUUUGUAUGCGAAAGUAUAUUGAUUAGUUUUGGAGUACUCGUGGUCG
Method in brief: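 DiMSum derived fitness as the error-weighted combination of fold changes across replicates, kanamycin versus no kanamycin, normalised to wild type. E. coli BL21(DE3) held the library, which randomised all eight P1ex-region intron nucleotides within the knt kanamycin-resistance gene on pET-22b(+). Six replicate transformations grew overnight at 37°C or 30°C on LB agar with or without 25 μg/mL kanamycin, also containing 100 μg/mL carbenicillin, 50 μM IPTG and 0.2% rhamnose, and pooled colonies were amplicon-sequenced on an Illumina HiSeq 2500.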

Sequence	self-splicing fitness (ln) (30 °C)	self-splicing fitness (ln) (37 °C)
UUAUAGCAAUAUUACGGGAG	-2.25 ± 0.25	-1.94 ± 0.31
AUAUAGCAAUAUUACGCUGG	-2.06 ± 0.2	-1.51 ± 0.32
CGCGAGCAAUAUUACGAGAG	-2.69 ± 0.18	-2.92 ± 0.31
AGUGAGCAAUAUUACGGAAU	-3.11 ± 0.18	-2.16 ± 0.13
CCGAAGCAAUAUUACGCUAG	-2.1 ± 0.18	-1.87 ± 0.22
GACUAGCAAUAUUACGGGAA	-2.32 ± 0.19	-0.809 ± 0.16
GGCAAGCAAUAUUACGUUAC	-1.39 ± 0.12	-1.5 ± 0.14
CUGCAGCAAUAUUACGAGAA	-2.56 ± 0.35	-2.64 ± 0.33
GUCUAGCAAUAUUACGCUAG	-2.97 ± 0.32	-2.31 ± 0.31
GAAGAGCAAUAUUACGCGGU	-2.63 ± 0.14	-2.55 ± 0.25
GGUCAGCAAUAUUACGAUUA	-0.0947 ± 0.092	-0.0575 ± 0.092
AUUUAGCAAUAUUACGAUCA	-1.08 ± 0.19	0.104 ± 0.16
ACACAGCAAUAUUACGGUAC	-4.03 ± 0.23	-2.03 ± 0.14
UUAGAGCAAUAUUACGGACG	-1.73 ± 0.15	-0.509 ± 0.29
CGACAGCAAUAUUACGCACU	-1.22 ± 0.09	0.0742 ± 0.12
UUAGAGCAAUAUUACGUAGU	-1.3 ± 0.21	-3.47 ± 0.42
GAACAGCAAUAUUACGGGCA	-0.822 ± 0.096	-0.223 ± 0.093
UUGAAGCAAUAUUACGCGUA	-0.169 ± 0.069	-0.247 ± 0.098
GAAAAGCAAUAUUACGGACG	-1.05 ± 0.092	-0.401 ± 0.1
GAGAAGCAAUAUUACGUGGU	-3.27 ± 0.17	-2.32 ± 0.21
CUCAAGCAAUAUUACGCCUU		-3.47 ± 0.39
GUAUAGCAAUAUUACGUUUU	-1.97 ± 0.2	-2.37 ± 0.28
UUUCAGCAAUAUUACGGCGA	-0.344 ± 0.093	0.167 ± 0.13
GUAUAGCAAUAUUACGCACA	-1.11 ± 0.13	0.279 ± 0.16
UUCGAGCAAUAUUACGUAUU		-2.79 ± 0.43

Sequence	self-splicing fitness (ln) (30 °C)	self-splicing fitness (ln) (37 °C)
UUGAAGCAAUAUUACGAACG	0.338 ± 0.093	0.443 ± 0.12
AGGGAGCAAUAUUACGGUAU		-0.384 ± 0.39
GUCAAGCAAUAUUACGGUGA	-2.82 ± 0.21	-2.22 ± 0.21
CAGGAGCAAUAUUACGCUUG	-3.59 ± 0.21	-2.48 ± 0.3
UACUAGCAAUAUUACGGUGA	-1.54 ± 0.11	-0.0276 ± 0.12
CGGCAGCAAUAUUACGGACC	-2.09 ± 0.26	-1.26 ± 0.2
AUCUAGCAAUAUUACGCGCU	-1.97 ± 0.23	-0.909 ± 0.2
UCCAAGCAAUAUUACGAUCA	-1.1 ± 0.14	-0.861 ± 0.15
UUCAAGCAAUAUUACGAAAG	-3.65 ± 0.24	-2.39 ± 0.28
GCCUAGCAAUAUUACGAGUG	-2.5 ± 0.11	-0.934 ± 0.099
AGGUAGCAAUAUUACGGUGC	-3.382 ± 0.029	-1.98 ± 0.038
CUGAAGCAAUAUUACGAGAG	-1.32 ± 0.088	-1.18 ± 0.11
CAGCAGCAAUAUUACGCAAG	-1.53 ± 0.092	-0.332 ± 0.11
CCGGAGCAAUAUUACGGCUA		-0.58 ± 0.2
CUAUAGCAAUAUUACGCGUA	-1.43 ± 0.31	-2.86 ± 0.31
GAUAAGCAAUAUUACGCGGA	-3.54 ± 0.22	-0.761 ± 0.12
UUUCAGCAAUAUUACGUCUU	-2.52 ± 0.17	-1.36 ± 0.13
GCUAAGCAAUAUUACGUUCA	-1.08 ± 0.07	-0.54 ± 0.092
GUUCAGCAAUAUUACGUUCU	-0.734 ± 0.073	-0.74 ± 0.087
GUGUAGCAAUAUUACGGCUC	-0.377 ± 0.064	0.195 ± 0.077
AACCAGCAAUAUUACGCCUG	-1.8 ± 0.066	-0.745 ± 0.087
GAACAGCAAUAUUACGGGAC	-2.66 ± 0.085	-1.36 ± 0.085
CAACAGCAAUAUUACGCGAC	-3.56 ± 0.12	-1.5 ± 0.12
UGUGAGCAAUAUUACGAAAA	-1.47 ± 0.35	-1.31 ± 0.46
AAAUAGCAAUAUUACGCUAU	-2.9 ± 0.18	-2.22 ± 0.34

Sequence	self-splicing fitness (ln) (30 °C)	self-splicing fitness (ln) (37 °C)
AAAAAGCAAUAUUACGCGUG	-1.12 ± 0.064	-1.18 ± 0.076
CGUUAGCAAUAUUACGGGUA	-3.15 ± 0.37	-2.08 ± 0.2
UCCUAGCAAUAUUACGAUCG	-3.36 ± 0.21	-2.33 ± 0.26
AUCUAGCAAUAUUACGUGGU		-2.85 ± 0.38
AAUAAGCAAUAUUACGAGAG	-2.47 ± 0.14	-2.01 ± 0.2
CGUCAGCAAUAUUACGAAAU	-3.61 ± 0.23	-2.6 ± 0.22
UCUAAGCAAUAUUACGGGCU	-4.19 ± 0.4	-1.84 ± 0.3
GUUAAGCAAUAUUACGCGAA	-2.09 ± 0.21	0.0507 ± 0.2
GCUCAGCAAUAUUACGUGGC	-3.61 ± 0.19	-2.79 ± 0.3
GGUAAGCAAUAUUACGAAAU	-1.94 ± 0.34	-0.431 ± 0.32
CCGGAGCAAUAUUACGUAUC		-2.58 ± 0.29
AAUAAGCAAUAUUACGCCCA	0.0107 ± 0.1	-0.447 ± 0.15
AACUAGCAAUAUUACGCUAG	-4.12 ± 0.23	-2.81 ± 0.22
UUCGAGCAAUAUUACGACGU	-3.55 ± 0.24	-1.85 ± 0.14
UUAGAGCAAUAUUACGCGUG	-0.924 ± 0.086	0.00533 ± 0.11
UGCGAGCAAUAUUACGAAGG	-1.75 ± 0.2	-1.91 ± 0.44
CGCUAGCAAUAUUACGACCA	-1.86 ± 0.093	-1.24 ± 0.12
UCCCAGCAAUAUUACGGCAC	-3.11 ± 0.12	-1.88 ± 0.15
CAUCAGCAAUAUUACGUAAA	-1.39 ± 0.11	-0.891 ± 0.13
CGCCAGCAAUAUUACGAAUA	-3.44 ± 0.34	
CGCCAGCAAUAUUACGUGAA	-1.76 ± 0.1	-1.1 ± 0.14
GGUUAGCAAUAUUACGAGCG	-0.684 ± 0.12	-0.0379 ± 0.12
UAAUAGCAAUAUUACGCGGC	-2.97 ± 0.36	-2.34 ± 0.37
GUCAAGCAAUAUUACGACCU	-3.31 ± 0.41	-0.756 ± 0.46
CUGCAGCAAUAUUACGCAUA	-2.84 ± 0.2	-2.73 ± 0.17

Sequence	self-splicing fitness (ln) (30 °C)	self-splicing fitness (ln) (37 °C)
CCGAAGCAAUAUUACGAGUC	-3.86 ± 0.21	-2.53 ± 0.19
UAAAAGCAAUAUUACGAAGG	-2.61 ± 0.21	-1.6 ± 0.23
GUGAAGCAAUAUUACGUGAG	-1.26 ± 0.076	-0.555 ± 0.097
GUGCAGCAAUAUUACGCUAG	-3.71 ± 0.31	-2.47 ± 0.32
UUGGAGCAAUAUUACGCUCU	-4.19 ± 0.39	
ACCGAGCAAUAUUACGUAUC		-2.59 ± 0.25
GAUAAGCAAUAUUACGCACA	-0.364 ± 0.14	0.39 ± 0.18
GCUGAGCAAUAUUACGUCGC	-2.96 ± 0.26	-2.17 ± 0.24
UUAUAGCAAUAUUACGCUAA	-2.61 ± 0.24	-2.34 ± 0.19
GUGCAGCAAUAUUACGACGA	-0.272 ± 0.15	0.701 ± 0.14
CAGUAGCAAUAUUACGAAAU	-2.86 ± 0.15	-2.54 ± 0.21
CAUCAGCAAUAUUACGGGAU		-1.88 ± 0.22
UAAGAGCAAUAUUACGAACA	-2.71 ± 0.42	-1.26 ± 0.27
AUAGAGCAAUAUUACGGGGA		-2.44 ± 0.28
GUAAAGCAAUAUUACGAGUU	-1.12 ± 0.093	-0.815 ± 0.12
GGAUAGCAAUAUUACGGGAG		-2.52 ± 0.21
AAUUAGCAAUAUUACGGAUC	-0.415 ± 0.11	0.186 ± 0.12
CGCUAGCAAUAUUACGAACA	-0.88 ± 0.11	-0.227 ± 0.14
CUUCAGCAAUAUUACGAGUU	-3.14 ± 0.2	-2.03 ± 0.2
GUCGAGCAAUAUUACGGCGC	-0.811 ± 0.25	-0.631 ± 0.44
ACACAGCAAUAUUACGGGUU	-2.86 ± 0.077	-1.85 ± 0.082
CGUGAGCAAUAUUACGCUGG	-1.7 ± 0.15	-1.47 ± 0.18
UUCGAGCAAUAUUACGUCCG	-3.05 ± 0.24	-1.24 ± 0.28
GAUGAGCAAUAUUACGCAAU	-4.35 ± 0.34	-2.46 ± 0.19
